Results from patent US20180230218A1 (IMMUNOGEN, published 2018).
Numbering of substitutions follows the chain as printed. Names may count otherwise.

B1: hucMet22Gv2.2 (antibody, V domains shown)
VH: QVQLVQSGAEVKKPGASVKVSCKASGYTFTDYNMDWVRQAPGQRLEWIGDLNPNNGATIYNQKFKGRATLTVDMSASTAYMELSSLRSEDTAVYYCARGNYYGNYYYLMDYWGQGTSVTVSS
VL: DIQMTQSPSSLSASVGDRVTITCRASENIYSTLAWYQQKPGKAPKLLVYAATNLADGVPSRFSGSGSGTDYTLTISSLQPEDFATYYCQHFWGTPYTFGQGTKVEIKR
notes: also called humanized (CDR-grafted) cMET-22
B2: hucMet27Gv1.3 (antibody, human IgG1, kappa)
light: EIVLTQSPATLSLSPGERATLSCRASESVDSYGNSFIHWYQQKPGQAPRLLIYRASNLESGIPARFSGSGSGTDFTLTISSLEPEDFAVYYCQQSNEEPLTFGQGTKVELKRTVAAPSVFIFPPSDEQLKSGTASVVCLLNNFYPREAKVQWKVDNALQSGNSQESVTEQDSKDSTYSLSSTLTLSKADYEKHKVYACEVTHQGLSSPVTKSFNRGEC
heavy: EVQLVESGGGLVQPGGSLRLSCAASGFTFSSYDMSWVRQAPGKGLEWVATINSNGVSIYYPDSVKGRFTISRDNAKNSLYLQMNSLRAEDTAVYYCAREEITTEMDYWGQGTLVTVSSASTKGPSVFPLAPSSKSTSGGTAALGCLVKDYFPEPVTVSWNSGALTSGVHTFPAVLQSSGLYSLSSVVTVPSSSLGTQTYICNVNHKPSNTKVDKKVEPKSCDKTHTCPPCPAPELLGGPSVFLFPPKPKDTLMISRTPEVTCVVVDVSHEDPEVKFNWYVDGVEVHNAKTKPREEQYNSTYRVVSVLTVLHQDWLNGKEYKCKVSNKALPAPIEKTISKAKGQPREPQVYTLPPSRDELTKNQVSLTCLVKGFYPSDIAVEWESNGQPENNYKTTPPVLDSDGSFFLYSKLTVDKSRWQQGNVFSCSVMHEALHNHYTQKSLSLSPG
notes: CDR-grafted cMET-27 with one S49A backmutation in VH; preferred construct
B3: hucMet27Gv1.3Hinge28 (antibody)
light: B2 light
heavy: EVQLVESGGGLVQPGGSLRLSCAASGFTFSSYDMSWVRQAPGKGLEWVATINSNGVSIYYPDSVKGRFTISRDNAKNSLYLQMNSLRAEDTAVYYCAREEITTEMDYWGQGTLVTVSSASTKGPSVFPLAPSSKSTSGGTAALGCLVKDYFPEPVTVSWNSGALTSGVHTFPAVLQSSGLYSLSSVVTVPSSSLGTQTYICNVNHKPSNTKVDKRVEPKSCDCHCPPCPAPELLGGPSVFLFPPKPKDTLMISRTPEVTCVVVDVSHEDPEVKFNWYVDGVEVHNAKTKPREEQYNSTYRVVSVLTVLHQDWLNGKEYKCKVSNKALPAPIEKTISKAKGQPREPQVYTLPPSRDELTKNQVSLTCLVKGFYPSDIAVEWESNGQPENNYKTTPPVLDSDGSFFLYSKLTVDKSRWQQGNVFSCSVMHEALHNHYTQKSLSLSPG
notes: Hinge#28 variant of hucMet27Gv1.3
B4: hucMet27Gv1.3HingeIgG2S127C (antibody)
light: B2 light
heavy: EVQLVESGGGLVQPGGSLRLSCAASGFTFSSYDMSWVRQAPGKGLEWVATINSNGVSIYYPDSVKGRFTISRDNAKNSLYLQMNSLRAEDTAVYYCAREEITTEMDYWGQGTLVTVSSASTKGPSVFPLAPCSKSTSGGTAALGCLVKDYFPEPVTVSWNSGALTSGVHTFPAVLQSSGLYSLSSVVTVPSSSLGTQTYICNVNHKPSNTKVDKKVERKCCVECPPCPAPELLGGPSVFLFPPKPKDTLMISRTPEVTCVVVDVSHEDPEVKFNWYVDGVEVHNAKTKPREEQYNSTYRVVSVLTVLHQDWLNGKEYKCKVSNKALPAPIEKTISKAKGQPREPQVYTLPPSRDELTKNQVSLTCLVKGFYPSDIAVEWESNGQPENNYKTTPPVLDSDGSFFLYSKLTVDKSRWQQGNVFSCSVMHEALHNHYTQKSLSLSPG
B5: hucMet27Gv1.3Hinge26C442 (antibody)
light: B2 light
heavy: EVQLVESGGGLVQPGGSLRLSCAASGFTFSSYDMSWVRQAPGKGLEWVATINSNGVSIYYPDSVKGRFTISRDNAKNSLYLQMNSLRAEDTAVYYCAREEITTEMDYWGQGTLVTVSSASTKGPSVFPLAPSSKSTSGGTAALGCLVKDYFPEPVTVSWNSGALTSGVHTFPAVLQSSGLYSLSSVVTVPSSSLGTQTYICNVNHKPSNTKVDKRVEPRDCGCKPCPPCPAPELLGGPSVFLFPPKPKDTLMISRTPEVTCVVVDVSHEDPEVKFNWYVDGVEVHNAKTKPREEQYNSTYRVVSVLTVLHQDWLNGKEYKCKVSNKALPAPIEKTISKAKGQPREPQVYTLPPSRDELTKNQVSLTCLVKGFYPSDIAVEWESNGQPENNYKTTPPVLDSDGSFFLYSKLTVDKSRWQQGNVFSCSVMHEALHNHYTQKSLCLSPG
notes: Hinge#26 and C442 (Cysmab) variant of hucMet27Gv1.3
B6: hucMet27Gv1.3C442 (antibody)
light: B2 light
heavy: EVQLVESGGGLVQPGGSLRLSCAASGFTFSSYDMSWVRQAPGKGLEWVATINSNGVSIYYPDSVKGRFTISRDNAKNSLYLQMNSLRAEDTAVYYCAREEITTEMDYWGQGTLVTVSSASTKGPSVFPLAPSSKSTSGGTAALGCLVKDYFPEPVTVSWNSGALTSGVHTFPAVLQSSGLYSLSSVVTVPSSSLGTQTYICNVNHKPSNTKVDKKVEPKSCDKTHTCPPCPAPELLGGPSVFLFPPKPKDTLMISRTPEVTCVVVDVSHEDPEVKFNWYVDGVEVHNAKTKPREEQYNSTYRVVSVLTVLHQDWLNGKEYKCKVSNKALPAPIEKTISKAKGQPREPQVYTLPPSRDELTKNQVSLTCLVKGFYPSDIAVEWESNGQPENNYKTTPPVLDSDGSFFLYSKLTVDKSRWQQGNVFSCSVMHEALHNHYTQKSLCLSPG
notes: Cysteine-engineered (C442, Cysmab) form of hucMet27Gv1.3, tested unconjugated
B7: hucMet27Gv1.2 (antibody, human IgG1, kappa, V domains shown)
VH: EVQLVESGGGLVQPGGSLRLSCAASGFTFSSYDMSWVRQAPGKGLELVATINSNGVSIYYPDSVKGRFTISRDIAKNSLYLQMNSLRAEDTAVYYCAREEITTEMDYWGQGTLVTVSS
VL: EIVLTQSPATLSLSPGERATLSCRASESVDSYGNSFIHWYQQKPGQAPRLLIYRASNLESGIPARFSGSGSGTDFTLTISSLEPEDFAVYYCQQSNEEPLTFGQGTKVELKR
notes: CDR-grafted cMET-27 with backmutations only in the VH domain (W47L, S49A, N73I); also called v1.2 (CDR-grafted)
B8: hucMet27v1.2 (antibody, human IgG1, kappa, V domains shown)
VH: B7 VH with A40T, S78T, N84S, V93M, L113S
VL: DIVLTQSPASLAVSPGQRATISCRASESVDSYGNSFIHWYQQKPGQPPKLLIYRASNLESGIPARFSGSGSRTDFTLTINPVEANDVATYYCQQSNEEPLTFGGGTKLELKR
notes: also called hu247.27.16 v1.2 (resurfaced); hu247.27.16 LC1.2 / HC1.0

molecular target: T1, Cyno cMet-ECD-his (cynomolgus monkey); experiment: BLI (ForteBio), antibody on anti-hIgG Fc capture biosensor, soluble cMet-ECD-his 2.6-30 nM, 1:1 fit
T1 construct: extracellular domain; Soluble analyte in the ForteBio assay; also called cynomolgus monkey cMet
Experimental: Briefly, each antibody was bound and immobilized onto an anti-hIgG Fc Capture biosensor and then incubated in the presence of different concentrations (2.6-30 nM) of His-tagged soluble cMet. The kinetics of binding were determined via ForteBio analysis binding using a 1:1 binding fit model.

| Binder | Kd | koff | kon |
| --- | --- | --- | --- |
| B1 | 3.62 nM | 0.00128 s⁻¹ | 353000 M⁻¹ s⁻¹ |
| B2 | 1.94 nM | 0.000415 s⁻¹ | 214000 M⁻¹ s⁻¹ |
| B3 | 1.68 nM | 0.000564 s⁻¹ | 336000 M⁻¹ s⁻¹ |
| B4 | 1.47 nM | 0.00045 s⁻¹ | 307000 M⁻¹ s⁻¹ |
| B5 | 1.57 nM | 0.000496 s⁻¹ | 317000 M⁻¹ s⁻¹ |
| B6 | 1.6 nM | 0.000439 s⁻¹ | 273000 M⁻¹ s⁻¹ |
| B7 | 0.614 nM | 0.000148 s⁻¹ | 241000 M⁻¹ s⁻¹ |
| B8 | 0.928 nM | 0.000196 s⁻¹ | 212000 M⁻¹ s⁻¹ |

molecular target: T2, Human cMet-ECD-his (human, UniProt P08581 25-932); experiment: as above
T2 construct: extracellular domain; Soluble analyte in the ForteBio assay; also called hu cMet; soluble recombinant hu cMet protein; not shown: histidine-containing peptide (His tag)
T2 sequence (P08581 25-932): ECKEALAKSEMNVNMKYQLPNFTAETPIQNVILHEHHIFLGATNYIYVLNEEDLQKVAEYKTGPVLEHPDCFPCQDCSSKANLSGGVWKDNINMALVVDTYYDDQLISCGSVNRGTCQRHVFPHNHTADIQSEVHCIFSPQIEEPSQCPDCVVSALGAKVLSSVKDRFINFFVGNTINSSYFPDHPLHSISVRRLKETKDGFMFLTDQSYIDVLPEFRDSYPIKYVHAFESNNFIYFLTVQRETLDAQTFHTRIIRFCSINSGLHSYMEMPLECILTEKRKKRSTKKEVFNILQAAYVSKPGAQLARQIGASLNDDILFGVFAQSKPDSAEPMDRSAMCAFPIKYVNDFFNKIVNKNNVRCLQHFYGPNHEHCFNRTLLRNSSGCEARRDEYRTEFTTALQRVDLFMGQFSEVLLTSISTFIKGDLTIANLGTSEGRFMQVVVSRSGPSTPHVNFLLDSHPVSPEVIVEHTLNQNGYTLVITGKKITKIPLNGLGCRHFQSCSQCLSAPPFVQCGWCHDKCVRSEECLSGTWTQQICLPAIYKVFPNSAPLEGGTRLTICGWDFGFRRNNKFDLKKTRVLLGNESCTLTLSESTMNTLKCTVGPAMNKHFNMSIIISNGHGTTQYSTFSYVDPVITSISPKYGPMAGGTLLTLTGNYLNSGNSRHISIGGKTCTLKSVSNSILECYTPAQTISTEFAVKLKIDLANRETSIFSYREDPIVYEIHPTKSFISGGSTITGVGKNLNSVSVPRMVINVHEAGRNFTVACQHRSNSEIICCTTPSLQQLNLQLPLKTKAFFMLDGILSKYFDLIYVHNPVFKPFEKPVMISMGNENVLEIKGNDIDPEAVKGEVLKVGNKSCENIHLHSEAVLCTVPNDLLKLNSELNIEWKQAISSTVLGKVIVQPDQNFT

| Binder | Kd | koff | kon |
| --- | --- | --- | --- |
| B1 | 4.77 nM | 0.00213 s⁻¹ | 445000 M⁻¹ s⁻¹ |
| B2 | 1.81 nM | 0.000478 s⁻¹ | 264000 M⁻¹ s⁻¹ |
| B3 | 1.96 nM | 0.000451 s⁻¹ | 230000 M⁻¹ s⁻¹ |
| B4 | 1.67 nM | 0.000436 s⁻¹ | 235000 M⁻¹ s⁻¹ |
| B5 | 1.9 nM | 0.000497 s⁻¹ | 262000 M⁻¹ s⁻¹ |
| B6 | 1.64 nM | 0.000447 s⁻¹ | 272000 M⁻¹ s⁻¹ |
| B7 | 0.941 nM | 0.000154 s⁻¹ | 266000 M⁻¹ s⁻¹ |
| B8 | 0.989 nM | 0.000233 s⁻¹ | 236000 M⁻¹ s⁻¹ |
